In assay [1] the target is T1, human PD-L1-moFc recombinant protein (human).
T1 construct: also called free PD-L1
The assay is described as follows: flow cytometry, blocking of PD-L1-moFc binding to CHO-K1-huPD-1 cells. On the procedure:
The antibodies to be tested were diluted with 3-fold gradient, added at 20 μL/well into the 96-well plate with the antigen added, mixed well, and incubated at room temperature for 15 min. CHO-K1-huPD-1 cells overexpressing human PD-1 were added at 2×10⁴/well into the 96-well plate pre-incubated with antigen-antibody, mixed well, and incubated at room temperature for 15 min. The mixture was centrifuged at 300 g for 5 min, the supernatant was removed, and the cells were washed twice with FACS buffer. Anti-moFc-Alexa 488 (Item No.: 115-545-071, Jackson) secondary antibodies were diluted at 1:300, added, mixed well, and incubated at room temperature for 15 min. The cells were washed three times and measured on instrument for the fluorescence intensity on their surfaces.

In assay [2] the target is T2, human PD-L1 on CHO-K1-huPD-L1 cells (human, UniProt Q9NZQ7 19-290). The assay is described as follows: cell-based or functional assay.
T2 sequence (Q9NZQ7 19-290): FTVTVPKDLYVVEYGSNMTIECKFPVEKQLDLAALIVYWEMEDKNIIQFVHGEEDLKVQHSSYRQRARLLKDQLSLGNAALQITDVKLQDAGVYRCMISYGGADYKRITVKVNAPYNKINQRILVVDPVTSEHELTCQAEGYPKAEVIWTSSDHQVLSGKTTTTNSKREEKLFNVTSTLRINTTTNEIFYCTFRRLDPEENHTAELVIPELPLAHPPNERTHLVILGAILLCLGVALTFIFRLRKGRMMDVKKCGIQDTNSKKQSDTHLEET
The target in assay [3] is T2, human PD-L1 on CHO-K1-huPD-L1 cells. The assay is described as follows: flow cytometry on CHO-K1-huPD-L1 cells; humanized antibody 900760. On the procedure: CHO-K1-huPD-L1 cells overexpressing human PD-L1 were plated in a 96-well plate at 2×10⁴/well, and the 3-fold serial gradient dilutions of the samples to be tested were added at 20 μl/well, and co-incubated with the cells at room temperature for 30 min. The cells were washed by centrifugation to remove unbound antibodies, and 20 μl of R-Phycoerythrin AffiniPure Goat Anti-Human IgG, Fcγ Fragment Specific (Item No.: 109-115-098, Jackson ImmunoResearch; diluted with 1% (w/v) BSA-PBS at 1:200) fluorescent secondary antibodies were added to each well, and incubated for 15 min. The cells were then washed twice, resuspended in 100 μl of 1% (w/v) BSA-PBS, and detected for their fluorescence intensity at 585 nm by flow cytometry (BD, FACS Cantoll) under 488 nm excitation.
(In general: A flow cytometer gives signals particle by particle.)

For assay [4], the target named is T3, recombinant human PD-L1 protein (Item No. 10084-H08H, Sino Biological) (human, UniProt Q9NZQ7 19-238).
T3 construct: Bought protein; also called huPD-L1; human PD-L1 antigen
T3 sequence (Q9NZQ7 19-238 limits assumed): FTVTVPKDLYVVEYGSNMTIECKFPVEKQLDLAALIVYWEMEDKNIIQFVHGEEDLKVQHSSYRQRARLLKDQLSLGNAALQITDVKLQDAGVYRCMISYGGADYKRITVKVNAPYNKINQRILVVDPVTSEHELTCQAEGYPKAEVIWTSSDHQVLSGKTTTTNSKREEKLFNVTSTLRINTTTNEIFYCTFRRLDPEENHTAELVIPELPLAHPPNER
The experiment in a line: SPR, Biacore 8K, antibody captured as ligand, PD-L1 analyte, 1:1 model. (In SPR one partner is held on a chip, and binding of the other changes the refractive index at the surface.)

For a further assay, the target named is T4, Rabbit PD-L1 (rabbit, UniProt G1SUI3 19-238).
T4 sequence: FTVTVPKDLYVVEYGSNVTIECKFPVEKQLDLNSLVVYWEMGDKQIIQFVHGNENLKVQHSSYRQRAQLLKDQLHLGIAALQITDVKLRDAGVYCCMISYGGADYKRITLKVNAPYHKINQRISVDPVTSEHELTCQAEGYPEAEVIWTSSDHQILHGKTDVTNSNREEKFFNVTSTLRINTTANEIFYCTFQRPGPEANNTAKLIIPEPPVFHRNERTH
The assay is described as above.

For another assay, the target named is Cynomolgus PD-L1 (cynomolgus). The description is as above.
Assay [5] concerns the target T3, recombinant human PD-L1 protein (Item …). The experiment in a line: SPR, humanization screening.
The target is the same in assay [6]. The experiment in a line: ELISA, humanization screening.

The results in this text go back to US20250074988A1 (SHANGHAI HUAOTA BIOPHARMACEUTICAL, published 2025).

As usually defined, the IC50 is the point on the concentration scale where inhibition reaches its midpoint. By EC50 is commonly meant the concentration that produces a half-maximal response. One may read the Kd as the equilibrium constant for the complex coming apart. The term koff denotes a measure of how fast the partners let go of each other. Usually kon stands for the rate constant with which the complex forms.

T1 sequence (chain, as listed by the source limits assumed): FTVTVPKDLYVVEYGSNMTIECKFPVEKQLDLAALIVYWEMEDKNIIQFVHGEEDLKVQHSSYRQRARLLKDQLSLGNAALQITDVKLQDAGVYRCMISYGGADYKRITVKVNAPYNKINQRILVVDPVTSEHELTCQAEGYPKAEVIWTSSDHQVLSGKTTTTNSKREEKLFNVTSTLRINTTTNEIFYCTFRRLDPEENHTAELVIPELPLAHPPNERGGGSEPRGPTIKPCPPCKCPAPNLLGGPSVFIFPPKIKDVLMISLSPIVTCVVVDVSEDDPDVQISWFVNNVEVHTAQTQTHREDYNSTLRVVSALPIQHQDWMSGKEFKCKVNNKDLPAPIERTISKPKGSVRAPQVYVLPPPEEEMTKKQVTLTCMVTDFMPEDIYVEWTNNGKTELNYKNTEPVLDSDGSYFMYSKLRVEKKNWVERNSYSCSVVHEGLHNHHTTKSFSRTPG

B1: humanized anti-PD-L1 antibody No. 900760 (antibody, V domains shown)
VH: QVQLVQSGAEVKKPGASVKVSCKASGYTFTDYYINWVRQAPGQRLEWIGWIYLGSGNAKYSQKFQGRVTITVDTSASTAYMELSSLRSEDTAVYYCARSVGTYWYFDVWGQGTTVTVSS
VL: QIQLTQSPSSLSASVGDRVTMTCSASSSVSYMHWYQQKPGKAPKPWIYDTSNVASGFPARFSGSGSGTDYTLTISSMQPEDFATYYCHQRSSYPWTFGQGTKLEIK
Turning to B1, the IC50 in assay [1] was 2.27 µg/mL. In assay [2], the “EC50, T cell activation (NFAT-luciferase RLU, Jurkat-NFAT-PD-1-5B8 effector cells with CHO-K1-OS8-PD-L1-8D6 target cells)” value was determined as 0.416 µg/mL. Also, in assay [3], it took 0.075 µg/mL to reach a half-maximal effect (EC50). For the same molecule, in assay [4], the Kd turned out to be 0.459 nM, the koff is 0.000158 s⁻¹ and the kon was 345000 M⁻¹ s⁻¹. In addition, in the assay with Rabbit PD-L1, binding was characterised by a dissociation constant (Kd) of 14 nM, the koff is 0.00235 s⁻¹ and the kon worked out at 167000 M⁻¹ s⁻¹. In the assay with Cynomolgus PD-L1, this molecule came in with a Kd of 0.695 nM, a koff of 0.000138 s⁻¹ and a kon of 198000 M⁻¹ s⁻¹.

B2: 900245Ab-H2L2 (antibody, human IgG1, kappa, L234A L235A, V domains shown)
VH: QIQLVQSGAEVKKPGASVKVSCKASGYTFTDYYINWVRQAPGQRLEWIGWIYLGSGNAKYNEKFKGRATLTVDTSASTAYMELSSLRSEDTAVYYCARCVGTYWYFDVWGQGTTVTVSS
VL: DIQLTQSPSSLSASVGDRVTITCSASSSVSYMHWYQQKPGKAPKPWIYDTSNVQSGFPSRFSGSGSGTDYTLTISSLQPEDFATYYCHQRSSYPWTFGQGTKLEIKR
notes: Humanized; huVH2 + huVL2 on human IgG1 / Ig kappa constants
For B2, the Kd in assay [5] was 0.816 nM. Further, the EC50 in assay [6] turned out to be 0.514 µg/mL.

B3: 900245Ab-H4L1 (antibody, human IgG1, kappa, L234A L235A, V domains shown)
VH: QVQLVQSGAEVKKPGASVKVSCKASGYTFTDYYINWVRQAPGQRLEWIGWIYLGSGNAKYNEKFKGRVTITVDTSASTAYMELSSLRSEDTAVYYCARSVGTYWYFDVWGQGTTVTVSS
VL: QIQLTQSPSSLSASVGDRVTMTCSASSSVSYMHWYQQKPGKAPKPWIYDTSNVASGFPARFSGSGSGTDYTLTISSMQPEDFATYYCHQRSSYPWTFGQGTKLEIKR
notes: Humanized; huVH4 + huVL1 on human IgG1 / Ig kappa constants
In the case of B3, the Kd in assay [5] came out at 0.726 nM. The EC50 in assay [6] turned out to be 0.589 µg/mL.

B4: 900245Ab-H3L3 (antibody, human IgG1, kappa, L234A L235A, V domains shown)
VH: QIQLVQSGAEVKKPGASVKVSCKASGYTFTDYYINWVRQAPGQRLEWIGWIYLGSGNAKYSQKFQGRATLTVDTSASTAYMELSSLRSEDTAVYYCARCVGTYWYFDVWGQGTTVTVSS
VL: DIQLTQSPSSLSASVGDRVTITCSASSSVSYMHWYQQKPGKAPKLLIYDTSSLQSGVPSRFSGSGSGTDYTLTISSLQPEDFATYYCHQRSSYPWTFGQGTKLEIKR
notes: Humanized; huVH3 + huVL3 on human IgG1 / Ig kappa constants
On to B4, for which the Kd in assay [5] was 10.4 nM. For the same molecule, the EC50 in assay [6] stood at 8.7 µg/mL.

B5: 900245Ab-H3L2 (antibody, human IgG1, kappa, L234A L235A, V domains shown)
VH: QIQLVQSGAEVKKPGASVKVSCKASGYTFTDYYINWVRQAPGQRLEWIGWIYLGSGNAKYSQKFQGRATLTVDTSASTAYMELSSLRSEDTAVYYCARCVGTYWYFDVWGQGTTVTVSS
VL: DIQLTQSPSSLSASVGDRVTITCSASSSVSYMHWYQQKPGKAPKPWIYDTSNVQSGFPSRFSGSGSGTDYTLTISSLQPEDFATYYCHQRSSYPWTFGQGTKLEIKR
notes: Humanized; huVH3 + huVL2 on human IgG1 / Ig kappa constants
For B5, the Kd in assay [5] came to 0.764 nM. For the same molecule, the EC50 in assay [6] amounted to 0.787 µg/mL.

B6: 900245Ab-H5L3 (antibody, human IgG1, kappa, L234A L235A, V domains shown)
VH: QVQLVQSGAEVKKPGASVKVSCKASGYTFTDYYINWVRQAPGQRLEWIGWIYLGSGNAKYSQKFQGRVTITVDTSASTAYMELSSLRSEDTAVYYCARSVGTYWYFDVWGQGTTVTVSS
VL: DIQLTQSPSSLSASVGDRVTITCSASSSVSYMHWYQQKPGKAPKLLIYDTSSLQSGVPSRFSGSGSGTDYTLTISSLQPEDFATYYCHQRSSYPWTFGQGTKLEIKR
notes: Humanized; huVH5 + huVL3 on human IgG1 / Ig kappa constants
On to B6, for which the Kd in assay [5] turned out to be 30.9 nM. Further, the EC50 in assay [6] was roughly 1410 µg/mL.

B7: 900245Ab-H4L2 (antibody, human IgG1, kappa, L234A L235A, V domains shown)
VH: QVQLVQSGAEVKKPGASVKVSCKASGYTFTDYYINWVRQAPGQRLEWIGWIYLGSGNAKYNEKFKGRVTITVDTSASTAYMELSSLRSEDTAVYYCARSVGTYWYFDVWGQGTTVTVSS
VL: DIQLTQSPSSLSASVGDRVTITCSASSSVSYMHWYQQKPGKAPKPWIYDTSNVQSGFPSRFSGSGSGTDYTLTISSLQPEDFATYYCHQRSSYPWTFGQGTKLEIKR
notes: Humanized; huVH4 + huVL2 on human IgG1 / Ig kappa constants
In the case of B7, in assay [5], the Kd turned out to be 1.97 nM. For the same molecule, the half-maximal effective concentration (EC50) in assay [6] stood at 1.31 µg/mL.

B8: 900245Ab-H2L1 (antibody, human IgG1, kappa, L234A L235A, V domains shown)
VH: QIQLVQSGAEVKKPGASVKVSCKASGYTFTDYYINWVRQAPGQRLEWIGWIYLGSGNAKYNEKFKGRATLTVDTSASTAYMELSSLRSEDTAVYYCARCVGTYWYFDVWGQGTTVTVSS
VL: QIQLTQSPSSLSASVGDRVTMTCSASSSVSYMHWYQQKPGKAPKPWIYDTSNVASGFPARFSGSGSGTDYTLTISSMQPEDFATYYCHQRSSYPWTFGQGTKLEIKR
notes: Humanized; huVH2 + huVL1 on human IgG1 / Ig kappa constants
In the case of B8, in assay [5], the Kd was 0.639 nM. The EC50 in assay [6] was determined as 0.385 µg/mL.

B9: 900245Ab-H5L2 (antibody, human IgG1, kappa, L234A L235A, V domains shown)
VH: QVQLVQSGAEVKKPGASVKVSCKASGYTFTDYYINWVRQAPGQRLEWIGWIYLGSGNAKYSQKFQGRVTITVDTSASTAYMELSSLRSEDTAVYYCARSVGTYWYFDVWGQGTTVTVSS
VL: DIQLTQSPSSLSASVGDRVTITCSASSSVSYMHWYQQKPGKAPKPWIYDTSNVQSGFPSRFSGSGSGTDYTLTISSLQPEDFATYYCHQRSSYPWTFGQGTKLEIKR
notes: Humanized; huVH5 + huVL2 on human IgG1 / Ig kappa constants
B9: the Kd in assay [5] came to 1.67 nM. The EC50 in assay [6] turned out to be 0.991 µg/mL.

B10: 900245Ab-H1L1 (antibody, human IgG1, kappa, L234A L235A, V domains shown)
VH: QIQLVQSGAEVKKPGASVKISCKASGYTFTDYYINWVRQAPGQRLEWIGWIYLGSGNAKYNEKFKGKATLTVDTSASTAYMELSSLRSEDTAVYFCARCVGTYWYFDVWGQGTTVTVSS
VL: QIQLTQSPSSLSASVGDRVTMTCSASSSVSYMHWYQQKPGKAPKPWIYDTSNVASGFPARFSGSGSGTDYTLTISSMQPEDFATYYCHQRSSYPWTFGQGTKLEIKR
notes: Humanized
As to B10, the Kd in assay [5] stood at 0.596 nM. Moreover, in assay [6], the EC50 stood at 0.361 µg/mL.

B11: 900245Ab-H5L1 (antibody, human IgG1, kappa, L234A L235A, V domains shown)
VH: QVQLVQSGAEVKKPGASVKVSCKASGYTFTDYYINWVRQAPGQRLEWIGWIYLGSGNAKYSQKFQGRVTITVDTSASTAYMELSSLRSEDTAVYYCARSVGTYWYFDVWGQGTTVTVSS
VL: QIQLTQSPSSLSASVGDRVTMTCSASSSVSYMHWYQQKPGKAPKPWIYDTSNVASGFPARFSGSGSGTDYTLTISSMQPEDFATYYCHQRSSYPWTFGQGTKLEIKR
notes: Humanized; huVH5 + huVL1 on human IgG1 / Ig kappa constants, screening batch from ExpiCHO-s cells; also called CoAD1445
Regarding B11, in assay [5], the Kd was 0.645 nM. Further, in assay [6], the EC50 was determined as 0.502 µg/mL.

B12: 900245Ab-H4L3 (antibody, human IgG1, kappa, L234A L235A, V domains shown)
VH: QVQLVQSGAEVKKPGASVKVSCKASGYTFTDYYINWVRQAPGQRLEWIGWIYLGSGNAKYNEKFKGRVTITVDTSASTAYMELSSLRSEDTAVYYCARSVGTYWYFDVWGQGTTVTVSS
VL: DIQLTQSPSSLSASVGDRVTITCSASSSVSYMHWYQQKPGKAPKLLIYDTSSLQSGVPSRFSGSGSGTDYTLTISSLQPEDFATYYCHQRSSYPWTFGQGTKLEIKR
notes: Humanized; huVH4 + huVL3 on human IgG1 / Ig kappa constants
With B12, the Kd in assay [5] amounted to 43.7 nM. For the same molecule, in assay [6], the EC50 is roughly 1520 µg/mL.

B13: 900245Ab-H3L1 (antibody, human IgG1, kappa, L234A L235A, V domains shown)
VH: QIQLVQSGAEVKKPGASVKVSCKASGYTFTDYYINWVRQAPGQRLEWIGWIYLGSGNAKYSQKFQGRATLTVDTSASTAYMELSSLRSEDTAVYYCARCVGTYWYFDVWGQGTTVTVSS
VL: QIQLTQSPSSLSASVGDRVTMTCSASSSVSYMHWYQQKPGKAPKPWIYDTSNVASGFPARFSGSGSGTDYTLTISSMQPEDFATYYCHQRSSYPWTFGQGTKLEIKR
notes: Humanized; huVH3 + huVL1 on human IgG1 / Ig kappa constants
Take B13: the Kd in assay [5] amounted to 0.576 nM. Besides, in assay [6], the EC50 came out at 0.381 µg/mL.
